In test [1] the target is T1, rhFAP and FAP homologues (DPP4, DPP8, DPP9, POP/PREP) (Homo sapiens, UniProt Q12884).
T1 construct: purchased Sino Biologicals 10464-H07H
T1 sequence (Q12884 26-760 limits assumed): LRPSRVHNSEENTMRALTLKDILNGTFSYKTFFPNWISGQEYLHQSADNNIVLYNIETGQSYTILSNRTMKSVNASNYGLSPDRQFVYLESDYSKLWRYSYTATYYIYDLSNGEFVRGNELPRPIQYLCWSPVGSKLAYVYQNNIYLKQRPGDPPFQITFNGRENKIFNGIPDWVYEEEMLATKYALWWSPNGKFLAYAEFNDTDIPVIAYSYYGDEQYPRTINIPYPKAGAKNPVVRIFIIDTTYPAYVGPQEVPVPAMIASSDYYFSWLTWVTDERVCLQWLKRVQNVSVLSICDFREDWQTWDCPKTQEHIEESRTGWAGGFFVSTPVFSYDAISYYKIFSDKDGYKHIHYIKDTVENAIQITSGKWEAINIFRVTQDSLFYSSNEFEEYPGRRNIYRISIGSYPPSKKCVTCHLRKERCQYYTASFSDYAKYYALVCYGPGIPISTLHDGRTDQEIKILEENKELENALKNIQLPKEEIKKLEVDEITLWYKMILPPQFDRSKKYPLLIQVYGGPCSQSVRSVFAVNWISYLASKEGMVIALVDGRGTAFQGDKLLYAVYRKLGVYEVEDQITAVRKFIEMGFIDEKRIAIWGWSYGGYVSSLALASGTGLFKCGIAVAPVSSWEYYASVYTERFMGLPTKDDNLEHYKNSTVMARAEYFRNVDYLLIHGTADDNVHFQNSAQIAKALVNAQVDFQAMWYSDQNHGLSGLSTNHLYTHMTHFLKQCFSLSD
Briefly: inhibition assays on SB9 oligopeptidase family enzymes. To be noted: 0-1000 nM antibody. It is filed as biochemical. On the procedure: To determine the inhibitory ability of the antibody a black 96 well plate was blocked for 1 h with blocking buffer. NI-206.82C2 was pipetted at concentrations of 1000, 50, 10, 3.03, 1.01, 0.031, 0.001, and 0 nM in PBS into the according wells. The enzymes were added at a concentration of 0.2 nM. Finally, fluorgenic substrates were then added to the well at a concentration equal to the Michaelis constant (Km) and the velocity of the substrate cleavage was quantified by fluorescence at 360 nm excitation and 460 nm emission. H-Gly-Pro-AMC (AAT Bioquest, 13450) was used for DPP4, DPP9, and DPP8. Z-Gly-Pro-AMC (BaChem, 11145) was used to evaluate the activity of POP/PREP. FAP activity was assessed using DQ-gelatin (Life Technologies, D12054) and cleavage quantified at 495 nm excitation and 515 nm emission.

Test [2] concerns human breast cancer tissue sections. Briefly: immunohistochemistry on human breast cancer tissue sections. To be noted: chimeric form with murine constant domain, 10 μg/mL, DAB. On the procedure: Human breast cancer tissue sections were allowed to dry for 10 min at room temperature, and then fixed for 15 minutes in 4% paraformaldahyde, followed by washing three times 5 minutes in PBS. Slides were then incubated for 5 min in 0.3% H2O2 in PBS to block endogenous peroxidase activity, and subsequently washed 3 times 5 min in PBS. Endogenous biotin was then blocked using the Biotin-Blocking System (DAKO X0590), followed by times washing with PBS. Blocking of unspecific antibody binding and permeabilization of the tissue section was performed using blocking buffer (5% goat serum, 5% horse serum, 0.3M glycine, 5% BSA, and 0.5% Triton X100 in PBS). Tissue sections were then stained with a recombinantly engineered chimeric form of NI-206.82C2 with a murine constant domain and the human variable domain of the original antibody and a matched isotype control (43A11) at 10 μg/mL in permeabilization buffer overnight at 4° C. Following three PBS washing steps, the sections were incubated with a biotinylated goat anti-mouse antibody for 1 h at room temperature. For amplifying the target antigen the VECTASTAIN ABC kit (Vector Labs) was used, followed by development with 3,3′-diaminobenzidine (DAB) and counterstained with Mayer's haematoxylin blue. […]

In test [3] the target is T2, active recombinant human FAP (Homo sapiens, UniProt Q12884).
T2 construct: purchased Sino Biologicals 10464-H07H
T2 sequence (Q12884 26-760 limits assumed): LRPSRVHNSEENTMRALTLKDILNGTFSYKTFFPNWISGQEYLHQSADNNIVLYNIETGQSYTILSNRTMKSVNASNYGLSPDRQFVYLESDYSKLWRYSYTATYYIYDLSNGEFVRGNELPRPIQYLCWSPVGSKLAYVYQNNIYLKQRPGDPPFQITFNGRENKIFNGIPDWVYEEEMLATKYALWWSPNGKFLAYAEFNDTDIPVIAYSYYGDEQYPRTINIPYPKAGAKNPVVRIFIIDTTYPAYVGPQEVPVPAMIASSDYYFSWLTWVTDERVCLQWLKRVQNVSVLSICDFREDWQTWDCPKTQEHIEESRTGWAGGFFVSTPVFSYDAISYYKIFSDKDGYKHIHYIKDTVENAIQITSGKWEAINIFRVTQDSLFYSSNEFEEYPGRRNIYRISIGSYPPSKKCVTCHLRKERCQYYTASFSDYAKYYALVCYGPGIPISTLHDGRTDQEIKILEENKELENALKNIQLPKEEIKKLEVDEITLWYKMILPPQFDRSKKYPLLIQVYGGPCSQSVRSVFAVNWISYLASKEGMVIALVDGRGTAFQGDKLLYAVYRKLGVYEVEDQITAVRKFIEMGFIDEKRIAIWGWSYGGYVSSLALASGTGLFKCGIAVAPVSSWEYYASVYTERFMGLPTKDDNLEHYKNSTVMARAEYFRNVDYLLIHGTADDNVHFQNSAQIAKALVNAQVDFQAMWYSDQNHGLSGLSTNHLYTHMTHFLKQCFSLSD
Briefly: DQ-gelatin cleavage inhibition, active recombinant human FAP. The test is classed as biochemical. On the procedure:
A black flat bottom standard 96-well ELISA plate was blocked for 1 hour at 37° C. using sterile blocking buffer: 5% bovine serum albumin (BSA) in phosphate buffered saline (PBS). The blocking buffer was removed and replaced with: 40 μL of fresh blocking buffer, 40 μL of antibody in PBS, 10 μL of 20 nM active recombinant human FAP (Sino Biologicals, 10464-H07H) in PBS, and 10 μL of DQ-Gelatin (Molecular Probes, D-12054) in PBS. Fluorescence intensity was measured at 485 nm excitation and 530 nm emission every 3 min over a total time of 45 min, while gently shaking the plate for twenty seconds before every measurement. To calculate the fractional activity, the steady state velocity (Δ 530 nm emission/Δ time) […].
To determine the inhibitory ability of NI-206.82C2 against active recombinant human FAP (Sino Biologicals, 10464-H07H) a black 96 well ELISA plate was blocked for 1 h at 37° C. with sterile 5% BSA in PBS. After removing the blocking solution, 40 uL of 12.5% BSA in PBS was added to each well. Then FAP-targeting agents (NI-206.82C2, F19, and Val-Boro-Pro (PT-100; Point therapeutics)) were added to the appropriate wells for a final concentration of 500, 10, 3.03, 1.01, 0.031, 0.001, and 0 nM. 10 uL of active recombinant human FAP was then added to all the wells for a final assay concentration of 20 nM. […]

B1: NI-206.82C2: human-derived recombinant anti-FAP antibody; VH SEQ ID NO: 2 or 4 (PIMC), VL SEQ ID NO: 6 (antibody, V domains shown)
VH: QVQLQQSGPGLVKPSQTLSLTCAISGDSVSSNSVTWNWIRQSPSRGLEWLGRTYYRSKWYNDYAVSVKGRITINPDTSKNQFYLQLKSVTPEDAAVYYCARDSSILYGDYWGQGTLVTVSS
VL: QAVLTQPSSLSASPGASASLTCTLPSGINVGTYRIFWFQQKPGSPPQYLLSYKSDSDNHQGSGVPSRFSGSKDASANAGILLISGLQSEDEADYYCMIWHSSAWVFGGGTKLTVL
For B1, the “inhibition selectivity for rhFAP over FAP homologues” value in test [1] is “selectively inhibits rhFAP, but not FAP homologues”. In test [2], the “staining of human ductal carcinoma in-situ tissue” value is listed as “Positive staining” and the “staining of human invasive ductal carcinoma tissue” value is reported as “Positive staining”. Also, the “potency for inhibiting active recombinant human FAP compared to Val-boro-Pro and F19” value in test [3] was “higher potency”.

These data come from patent US20180022822A1, “NOVEL ANTI-FIBROBLAST ACTIVATION PROTEIN (FAP) BINDING AGENTS AND USES THEREOF” (Mabimmune Diagnostics AG, priority 2016, published 2018).
